Measurements from a protein production outcome set (Wang et al. 2014).

Test: label from the status in PepcDB records
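Note: failed if final PepcDB status was selected cloned or expressed and not failed if soluble or beyond.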

| Sequence | protein production |
| --- | --- |
| MENEKILNPIIIQRADPMIYKHNDGYYYFTASVPEYDRIEVRKAKTIEGLRNAEPVDVWRRHESGEMSNLIWAPEIHFINGAWYIYFAAAPDKNIEDDTFNHRMFVIQNENENPFTGNWVEKGRIKTAWESFSLDATIFEHNEKLYYVWAQQDINIKGHSNIYIAEMENPWTLKTKPVMLTKPELEWEIKGFWVNEGPAVLKKNGKIFITYSASATDVNYCIGMLTAEENSNLLDKNSWTKSQTPVFKTSMENHQYGPGHNSFTVSEDGKHDVIVYHARNYTEIKGDPLYDPNRHTRAQIINWREDGTPDFGVPEVDSLEIETPVKA | not failed |
| MNVVRSSAYTGVATLAKLLAALVVVKLVAVYAGPQGVGRLGQFLNLMSVLAVLAGGGISAGIVKYVAQYRDDAPALARLLSAALWYAFCAACAMALLAMAFSGAIAERLLGDASYRPLMCVLAIAQLGIALLNYMLAVINGFMDVRRLAFVQVSGAVLSVALVAWLSGRAQLHGALLALVLSQVLWLLAAVPALRRSSYFQPAMWRMRFDAEMTRQLAAFSVMTLTSTLVPQLVAILVRDHLALQFGWEQVGYWQAVSRVSDAYLLFFTTAINVYYLPKLASLRGAVALGQELRGAYRYVMPAVIVMALGVYVCRDWVTLLLFDAQFAAAAPLYGPQLLGDVVKIAAFVLSYVMLAKAMTRLLVISECIFAASYLALVYLFTAQFGLIGAMYAFAANYVLYLLFNIVVVRRYLRRTA | failed |
| MLPIAPCARQAVHRQCGGMQNSAAARKLHAVLPRTLDTARIARRSSMFLRRNGLSLCLLALTIFFIGCQVYAGLHAYNDELREQGQPTLLLSAYLHSPHFMSALFENWESEFLQMGMYVLLTVKLRQVGSAESRPLDPTEETVEIKSGPTPWPVRAGGVWRRLYDHSLAIAFAALFLMSFALHLVGSWRLEVTERAQKGLPPITVLEHFTSASFWFESMQNWQSEFLAVFSLVVLTIWLRQKDSPQSKPVEAPHSQTGG | failed |
| PGSTDFNGALILGLGIDLEKAVGWKNAFFEVEGLQYNGQPVNFAAGSVQGYNSIEAGPPLNRTELYQLWLNQTFLDNRLSFRVGKLIPSMNFGYVGRPFVTQTNPQLFTSTTGLIYTPVFVGPAMLGFIPGYYNSAFGLYGSWKSWGAPGDNPATPNGWYTQAGIYDGRGAQGVQTGLTWPNFSGALFSVAEVGGTWTPYADDPATGWGSVAVGGWRQSGPLTAPGGAFEAQTGGMYAYLVQKLGKFRDSEDQNGIVGFVQGGWNSSSTALMHSSLGFGLTFIAPFGDRPLDSYGFGFSWARLNANPLAGYGFNSYETMIQLYAQYHLVGNLFIQPVLTVLPTPGSGGAGAPSVSGTVQLTFPF | failed |
| SKIIDIKTSIIKIPLKRTFITAVRSTNHIDSLAVELTLDNGVKGYGVAPATTAITGDTLQGMQYIIREIFAPVILGSDLSDYKQTLELAFKKVMFNSAAKMAIDLAYHDLLAKEQDISVAKLLGAKANSIVTDVSISCGNVAETIQNIQNGVEANFTAIKVKTGADFNRDIQLLKALDNEFSKNIKFRFDANQGWNLAQTKQFIEEINKYSLNVEIIEQPVKYYDIKAMAEITKFSNIPVVADESVFDAKDAERVIDEQACNMINIKLAKTGGILEAQKIKKLADSAGISCMVGCMMESPAGILATASFALAEDITVADLDPLDWVAKDLYSDYITFNEPNIILKDNLKGFGFNL | not failed |
| MNQKDVKLTVFSSDEKSFMVTATLVEKAGHAFLINSKFTQSDSKEIVEYLKKNNLSLDKIFIIHGDPDYYFGLESIKAVYPEAIAYATESTVEHIVHSVLGKLKVWKDALGENAPSNVVLPQVFKEKAIDFQGLTFELVGLEHYRTSLFNKELKVLIGGIDVFNEIHVFLADTSSKAAMEAWIENLKVLQALHADIIVPSHGSIEKSLNNQALTATMDYLRTAVQASEESGTSKDFVAKLEAAYPDYANKGVLELSAKVVTKELEHHHHHH | failed |
| MIEYIIGVIGLLLASVQDFRSREIEDYIWIVLAVFGILFAIYSAITLSNYSILINSISGFVICFILGYMMFLSGIGGGDGKILIGLGALVPKFQMPIYTSLGTLLNLNYIPNFPIMVFINGIFFMVFLPFVILFRNILNGARPKTGKEVILMFFGEKMKVKVAKEQKRLIMGQNDKINFFPASDDEDFSKYGDEEEIWVTPQIPLIIPITLSYLVTPIIGDRILDLLIPF | failed |
| WKTGGRFLTLGVTLIMFIIVSNFLGLPFMYSATEAGEHIAWWRSPTSDPAVTLTLAVMVVTLTHYYGIKMKGTKEYVKGYFQPMKFLFPLKVIEEFANTLTLGLRLFGNIYAGEILLGLLAKLGGASFLGALGALVPMLAWMGFSVFVGSIQAFIFVMLTMVYMAHKVSHDH | failed |
| MKVLSYLKNFYLFLAIGAIMQASENMGSQHQKTDERVIYLAGGCFWGLEAYMERIYGVIDASSGYANGKTSSTNYEKLHESDHAESVKVIYDPKKISLDKLLRYYFKVVDPVSVNKQGNDVGRQYRTGIYYVNSADKEVIDHALKALQKEVKGKIAIEVEPLKNYVRAEEYHQDYLKKHPSGYCHIDLKKADEVIVDDDKYTKPSDEVLKKKLTKLQYEVTQNKHTEKPFENEYYNKEEEGIYVDITTGEPLFSSADKYDSGCGWPSFSKPINKDVVKYEDDESLNRKRIEVLSRIGKAHLGHVFNDGPKELGGLRYCINSAALRFIPLKDMEKEGYGEFIPYIKKGELKKYINDKKSH | failed |
| MTSAFNAYTALALAIVSEVIASAFLQQSAQFTRPWPTLAMVLFYVASFYALSVAIRVIPLSIAYAIWGGVGIILTATVSFVLFRQMLDAAAFVGIGLIVSGVVIINLFSETTVH | failed |
| MAKNAPRFVCQACGAVYPRWMGRCEACGEWNSIAEEAPAEALPKGQTGGRGGQRLSFVSLEGVGAPPPRLLTGIPELDRVAGGGLVAGSALLIGGDPGIGKSTLLLQAVAGLARGGARSVYISGEEAIDQVRLRALRLGLEKAPVDLAAATSVRDIVATLDSGEPPDVVVIDSIQTMYLDTLDSAPGTVAQVRAGSHELIRLAKRRGFVLFLVGHVTKEGQMAGPRVMEHMVDAVIYFEGERGHPFRILRAVKNRFGATDEIGVFEMSDAGLSEVPNPSALFLAERRGNVTGSCVFAGMEGTRPMLVEIQALVGPSAPGSARRAVVGWDGGRLAMVMAVLETRCGLALGGNDVYLNVAGGLRIGEPAADLAVAAALVSSFSGVPVPPDMVVFGEIGLSGEIRAVAHGDTRLKEAAKLGFDQALMPARPRDSGKRGGPGVKEGLRMREIGHLQDLVALLAPPENAGQGQRLEHHHHHH | not failed |
| MENVITYNNDKGLLAYIQFLASSAQKIGDGNTDRVFDFEDALDQTQMAQLAVDELKKIPEVNALFSERWLPAPFNLDDLAKLPEGTLGHVYAREMKARGFDPYFYKKVPVVDDISYLKMLWRSTHDIYHVVAGFDTNVFGEIGLQAFFLAQTPIPISVMLLSFGMVMISLYQPTNFKALMTEISRGYRVGSHTPGKLIAQKWDQLWDVQVSEIRERLGVNSIL | not failed |
| MAKPVVETPLMRQYFQIKQKHPDAILLFRVGDFYETFSEDAIVASEILGITLTRRANGAAQFVELAGFPHHALDTYLPKLVRAGKRVAICDQLEDPKKTKTLVKRGITELVTPGVSTNDNVLSHKENNFLAAVSCGKEVFGISLLDISTGEFMAGQGNADYVEKLLTNYRPKEILVERSERSRFNDLFHWSGFIFDMEDWAFSSENNRLRVLKHFDLKSLKGFGLEELSMAVTAAGAVLNYLDLTQHHQLQHITSLSRLDENRYVRLDKFTVRSLELLSPMNEGGKSLLDIIDHTITPMGARRIRQWIVFPLKDPARIQARQRVVEFFFRHPEERAIIAEHLTEIGDLERLVTKGAMGRISPREMVQLRVALQALEPIKEVCTHADEENLRTLGGKLELCKELRDKILREVMPDAPAALGRGPVIAHGVDATLDELRALAYSGKDYLIKLQQQEIERTGIPSLKVAYNNVFGYYIEVRNTHKDKVPAEWIRKQTLVSAERYITEELKEYEAKILGAEEKIAALEGQLYALLVAELQRYVAPLQQDSQAVASLDCLLSFAESARRYRFICPVVDESFTIDIKAGRHPVIEQQLPADEPYIANDIYLDTDRQQVIIVTGPNMSGKSALLRQTALISLMAQIGSFVPAESARIGMVDSIFTRVGASDNISMGESTFMVEMQEASNILNNLTPRSLVLFDELGRGTSTYDGISIAWSIVEYIHDNPKAHPRTLFATHYHELNELEGQLDRVHNFNVSAREVDGKMLFLRKLEPGGSAHSFGIQVARLGGMPHHIVQRATDILHRLEQEREKIEEEEPKTKDTKRGPSEKVKNASPTLPRDEKGRSIDGYQLSFFQLDDPVLSQIREEILDLNIDNLTPLEALNKLNDIKRILRGY | failed |
| VVAPITTGYTVKISNYGWDQSDKFVKIYITLTGVHQVPTENVQVHFTERSFDLLVKNLNGKSYSMIVNNLLKPISVEGSSKKVKTDTVLILCRKKVENTRWDYLTQVEKECKEK | not failed |
| MTPGEVRRLYFIIRTFLSYGLDELIPKMRITLPLRLWRYSLFWMPNRHKDKLLGERLRLALQELGPVWIKFGQMLSTRRDLFPPHIADQLALLQDKVAPFDGKLAKQQIEAAMGGLPVEAWFDDFEIKPLASASIAQVHTARLKSNGKEVVIKVIRPDILPVIKADLKLIYRLARWVPRLLPDGRRLRPTEVVREYEKTLIDELNLLRESANAIQLRRNFEDSPMLYIPEVYPDYCSEGMMVMERIYGIPVSDVAALEKNGTNMKLLAERGVQVFFTQVFRDSFFHADMHPGNIFVSYEHPENPKYIGIDCGIVGSLNKEDKRYLAENFIAFFNRDYRKVAELHVDSGWVPPDTNVEEFEFAIRTVCEPIFEKPLAEISFGHVLLNLFNTARRFNMEVQPQLVLLQKTLLYVEGVGRQLYPQLDLWKTAKPFLESWIKDQVGIPALVRAFKEKAPFWVEKMPELPELVYDSLRQGKYLQHSVDKIARELQSNHVRQGQSRYFLGIGATLVLSGTFLLVSRPEWGLMPGWLMAGGLIAWFVGWRKTR | failed |
| MPAERDSSAAWAVCVYCASGPQHPELLGVAAELGEAIAERGWTLVWGGGRVSAMGAVASAARARGGRTVGVIPTVLMRREIADADADELIVSDTLHERKQIMEDRADAFIALPGGIGTLDEVLDAWTTGFLGLHAKPIVLLDPIGHYEGLWLWLSGLLDSGYITQAAMDRVVLVDKVGAALEACAPG | failed |
| MRKLTFLLTFFMLLGSVQLQAKEYAIKDIPMVHLQNRTRYVSNPDGILSSTAVTTMDSILYALEQKTGIQTLVVAVTGIEGGDCFDFAHRLGQETGVGQKERDNGLVILLSTDERCVQFATGYGLEGILPDAICKRIQNRYMLPYFKDNNWNAGMVAGIRAVNGYLDGSMENIGNDESEDDPLEFIIIFFVIFGGFIGIGLYANWRKTRCPHCKKHKLQRLSSKVIDRSNGTKTEEVVYKCRNCGHILRRKERSRDENYKGPRGGGPFIGGMGGGFFGGHGGSGGGFSGGSFGGGSFGGGGAGSRF | failed |
| MSEWMKKSPLEWEDYVYKEVRVIACEKEYKGWLLTTDPVSANIVLVNFLEDGRLSVTGIMGHSVQTVETISEGDHRVREKLMHVFASGDCKGYSPEDLEEKRTSLKKWLEKNHIPVTEQGDAQRTLCVAGVLTIDPPYAPENCSSSNEIILSRIQDLIQGHLSASQ | failed |
| MYCDHFGFSEHPFALTPNPAFLFLSSRHQEAFAHLLYGIDTRAGFIELSGEVGTGKTTVIRTFLNQLDPETHRTALVFNPTVSPLGLLQGIIREFGLPGTSTEKSELLETLNRFLLDENRAGHTVVLVIDEAQNLSPEVLEQIRLISNLETERDKLIQIVLVGQPELRHLLARQELRQLDQRITVRYHLEPMGLDDTKNYIRHRIRIAAGGREPVIFSAGAVKKIFGFSGGLPRLINAACDRALLLAYTTEAREVSPAMAAAAIADVATEARPPSPSRRFAVAAALILVAALGAGTFAVTRKGGESLPSASPPPTEPAASGEQPLKRTAALAGLAAVPEKDNLSAAVNTILRSWQAPPVASSPSPADLRSLARERGLTVTELSGTLNDLARLDTPALLHITLPQGGKRLVALTSLDKGHIGIDPPIAGHSTLTGGELSTLWSGRASVIWKNFHGIPSRLKPGGRSKAVGQLQELLKGAGYYAGRISGTYDTVTQEAIRSFQTAEGLDADGRTGEKTLLLLYRRAGGFFPPGLTQGKTAARTEAGDRSRGKVAQTRSNGEQSRLEHHHHHH | failed |
